Measured values taken from paper PMC10855554.
Each block holds one substance with its values, some of them ahead of it.

Key:
TbTim10-Myc (T. brucei) = assay: co-IP; anti-Myc agarose beads, 1% digitonin-solubilised mitochondrial extract of double-tagged T. brucei cells (day 2 of induction), 50 mM Tris pH 7.2, 50 mM NaCl, 10% glycerol, 12 h at 4 °C; immunoblot, bound fraction as percent of input
TbTim13-HA (T. brucei) = assay: co-IP; anti-HA agarose beads, 1% digitonin-solubilised mitochondrial extract of double-tagged T. brucei cells (day 2 of induction), 50 mM Tris pH 7.2, 50 mM NaCl, 10% glycerol, 12 h at 4 °C; immunoblot, bound fraction as percent of input
TbTim10-HA (T. brucei) = assay: as above
TbTim9-HA (T. brucei) = assay: as above
TbTim12-HA (T. brucei) = assay: as above
TbTim8/13-HA (T. brucei) = assay: as above

percent of input co-precipitated (% of the input) (TbTim10-Myc (T. brucei)): 30
Substance: TbTim12-HA (natural protein)

percent of input co-precipitated (% of the input) (TbTim10-Myc (T. brucei)): 35
Substance: TbTim9-HA (natural protein)

The remaining lines, values behind:

Substance: TbTim10-HA (natural protein)
percent of input co-precipitated (% of the input) (TbTim10-Myc (T. brucei)): 25

Substance: TbTim10-Myc (natural protein)
percent of input co-precipitated (TbTim13-HA (T. brucei)): < 10%
percent of input co-precipitated (TbTim10-HA (T. brucei)): < 10%
percent of input co-precipitated (% of the input) (TbTim9-HA (T. brucei)): 45
percent of input co-precipitated (TbTim12-HA (T. brucei)): < 10%
percent of input co-precipitated (% of the input) (TbTim8/13-HA (T. brucei)): 45

Substance: TbTim8/13-HA (natural protein)
percent of input co-precipitated (% of the input) (TbTim10-Myc (T. brucei)): 45
